In the RNAGym collection of RNA variant scans (doi:10.1021/acssynbio.7b00057):

B1: Pistol ribozyme (parent)
chain: GGGUCGUUGUUCCAUAAUCGCGUGGAUAUGGCACGCAAGUUUCUACCGGGCACCGUAAAUGUCCGACUGGAGCCGUUCGGGCGGCUAUAAACAGACCUCAGGCCCGAAGCGUGGCGGCACCUGCCGCCGGUGGUAAAAAAGAUCGGAAGAGCACACGUCU

Variants of: B1
Test: aptazyme ON/OFF ratio, guanine; higher = stronger switching; co-transcriptional cleavage with and without guanine

| Variant | aptazyme ON/OFF ratio |
| --- | --- |
| GGGUCGGCCGUAUAUAAUCGCGUGGAUAUGGCACGCAAGUUUCUACCGGGCACCGUAAAUGUCCGACUGGAGCCGUUCGGGCGGCUAUAAACAGACCUCAGGCCCGAAGCGUGGCGGCACCUGCCGCCGGUGGUAAAAAAGAUCGGAAGAGCACACGUCU [U7G U8C G9C U10G C12A C13U] | 1.13 |
| GGGUCGCUCGACCAUAAUCGCGUGGAUAUGGCACGCAAGUUUCUACCGGGCACCGUAAAUGUCCGACUGGAGCCGUUCGGGCGGCUAUAAACAGACCUCAGGCCCGAAGCGUGGCGGCACCUGCCGCCGGUGGUAAAAAAGAUCGGAAGAGCACACGUCU [U7C G9C U10G U11A] | 1.09 |
| GGGUCGUGUGUAUAUAAUCGCGUGGAUAUGGCACGCAAGUUUCUACCGGGCACCGUAAAUGUCCGACUGGAGCCGUUCGGGCGGCUAUAAACAGACCUCAGGCCCGAAGCGUGGCGGCACCUGCCGCCGGUGGUAAAAAAGAUCGGAAGAGCACACGUCU [U8G G9U U10G C12A C13U] | 1.05 |
| GGGUCGUAACGUCAUAAUCGCGUGGAUAUGGCACGCAAGUUUCUACCGGGCACCGUAAAUGUCCGACUGGAGCCGUUCGGGCGGCUAUAAACAGACCUCAGGCCCGAAGCGUGGCGGCACCUGCCGCCGGUGGUAAAAAAGAUCGGAAGAGCACACGUCU [U8A G9A U10C U11G C12U] | 1.26 |
| GGGUCGACUUAUAAUAAUCGCGUGGAUAUGGCACGCAAGUUUCUACCGGGCACCGUAAAUGUCCGACUGGAGCCGUUCGGGCGGCUAUAAACAGACCUCAGGCCCGAAGCGUGGCGGCACCUGCCGCCGGUGGUAAAAAAGAUCGGAAGAGCACACGUCU [U7A U8C G9U U11A C12U C13A] | 1.37 |
| GGGUCGUACACCGAUAAUCGCGUGGAUAUGGCACGCAAGUUUCUACCGGGCACCGUAAAUGUCCGACUGGAGCCGUUCGGGCGGCUAUAAACAGACCUCAGGCCCGAAGCGUGGCGGCACCUGCCGCCGGUGGUAAAAAAGAUCGGAAGAGCACACGUCU [U8A G9C U10A U11C C13G] | 1.03 |
| GGGUCGCUGAAAAAUAAUCGCGUGGAUAUGGCACGCAAGUUUCUACCGGGCACCGUAAAUGUCCGACUGGAGCCGUUCGGGCGGCUAUAAACAGACCUCAGGCCCGAAGCGUGGCGGCACCUGCCGCCGGUGGUAAAAAAGAUCGGAAGAGCACACGUCU [U7C U10A U11A C12A C13A] | 1.17 |
| GGGUCGCUCAGUGAUAAUCGCGUGGAUAUGGCACGCAAGUUUCUACCGGGCACCGUAAAUGUCCGACUGGAGCCGUUCGGGCGGCUAUAAACAGACCUCAGGCCCGAAGCGUGGCGGCACCUGCCGCCGGUGGUAAAAAAGAUCGGAAGAGCACACGUCU [U7C G9C U10A U11G C12U C13G] | 1.08 |
| GGGUCGCCAAGCGAUAAUCGCGUGGAUAUGGCACGCAAGUUUCUACCGGGCACCGUAAAUGUCCGACUGGAGCCGUUCGGGCGGCUAUAAACAGACCUCAGGCCCGAAGCGUGGCGGCACCUGCCGCCGGUGGUAAAAAAGAUCGGAAGAGCACACGUCU [U7C U8C G9A U10A U11G C13G] | 1.19 |
| GGGUCGCAGUCCCAUAAUCGCGUGGAUAUGGCACGCAAGUUUCUACCGGGCACCGUAAAUGUCCGACUGGAGCCGUUCGGGCGGCUAUAAACAGACCUCAGGCCCGAAGCGUGGCGGCACCUGCCGCCGGUGGUAAAAAAGAUCGGAAGAGCACACGUCU [U7C U8A U11C] | 1.1 |
| GGGUCGAGGUCCUAUAAUCGCGUGGAUAUGGCACGCAAGUUUCUACCGGGCACCGUAAAUGUCCGACUGGAGCCGUUCGGGCGGCUAUAAACAGACCUCAGGCCCGAAGCGUGGCGGCACCUGCCGCCGGUGGUAAAAAAGAUCGGAAGAGCACACGUCU [U7A U8G U11C C13U] | 1.11 |
| GGGUCGUGGCAGCAUAAUCGCGUGGAUAUGGCACGCAAGUUUCUACCGGGCACCGUAAAUGUCCGACUGGAGCCGUUCGGGCGGCUAUAAACAGACCUCAGGCCCGAAGCGUGGCGGCACCUGCCGCCGGUGGUAAAAAAGAUCGGAAGAGCACACGUCU [U8G U10C U11A C12G] | 1.26 |
| GGGUCGUGGGUAUAUAAUCGCGUGGAUAUGGCACGCAAGUUUCUACCGGGCACCGUAAAUGUCCGACUGGAGCCGUUCGGGCGGCUAUAAACAGACCUCAGGCCCGAAGCGUGGCGGCACCUGCCGCCGGUGGUAAAAAAGAUCGGAAGAGCACACGUCU [U8G U10G C12A C13U] | 1.17 |
| GGGUCGUCGACAUAUAAUCGCGUGGAUAUGGCACGCAAGUUUCUACCGGGCACCGUAAAUGUCCGACUGGAGCCGUUCGGGCGGCUAUAAACAGACCUCAGGCCCGAAGCGUGGCGGCACCUGCCGCCGGUGGUAAAAAAGAUCGGAAGAGCACACGUCU [U8C U10A U11C C12A C13U] | 1.08 |
| GGGUCGCCCUCAUAUAAUCGCGUGGAUAUGGCACGCAAGUUUCUACCGGGCACCGUAAAUGUCCGACUGGAGCCGUUCGGGCGGCUAUAAACAGACCUCAGGCCCGAAGCGUGGCGGCACCUGCCGCCGGUGGUAAAAAAGAUCGGAAGAGCACACGUCU [U7C U8C G9C U11C C12A C13U] | 1.18 |
| GGGUCGGCAAUGAAUAAUCGCGUGGAUAUGGCACGCAAGUUUCUACCGGGCACCGUAAAUGUCCGACUGGAGCCGUUCGGGCGGCUAUAAACAGACCUCAGGCCCGAAGCGUGGCGGCACCUGCCGCCGGUGGUAAAAAAGAUCGGAAGAGCACACGUCU [U7G U8C G9A U10A C12G C13A] | 1.07 |
| GGGUCGGCUGACUAUAAUCGCGUGGAUAUGGCACGCAAGUUUCUACCGGGCACCGUAAAUGUCCGACUGGAGCCGUUCGGGCGGCUAUAAACAGACCUCAGGCCCGAAGCGUGGCGGCACCUGCCGCCGGUGGUAAAAAAGAUCGGAAGAGCACACGUCU [U7G U8C G9U U10G U11A C13U] | 1.12 |
| GGGUCGAAAAUUAAUAAUCGCGUGGAUAUGGCACGCAAGUUUCUACCGGGCACCGUAAAUGUCCGACUGGAGCCGUUCGGGCGGCUAUAAACAGACCUCAGGCCCGAAGCGUGGCGGCACCUGCCGCCGGUGGUAAAAAAGAUCGGAAGAGCACACGUCU [U7A U8A G9A U10A C12U C13A] | 1.27 |
